Measurements as given in the nanobody polyreactivity screen of Harvey et al. (2022).

assay: yeast display, Sf9 membrane polyspecificity reagent, FACS + sequencing; frameworks hold sequencing errors
Method in brief: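 Sorting gates, low and high (top ~1%), were placed on anti-HA fluorescence to track expression and on streptavidin fluorescence to track reagent binding. A clone's polyreactivity label is taken from the gate it came out of. The reagent was 10% biotinylated, detergent-solubilized Sf9 membrane, applied for 1 hour at 4 °C to galactose-induced yeast display cells.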

Row | Sequence | polyreactivity (PSR sort gate)
1 | QVQLVESGGGLVQAGGSLRLSCAASGIIFLWYAMGWYRQAPWKERELVAAISRTGSSTYYADSVKGRFTISRDNAKNTVYLQMNSLKPEDTAVYYCAAAYYSKRSWRFDYWGQGTQVTVSS | high polyreactivity
2 | QVQLVESGGGLVQAGGSLRLSCAASGIIFLYYAMGWYRQAPGKEREFVAAISWSGGRTYYADSVKGRFTISRDNAKNTVYLQMNSLKPEDTAVYYCAATYALRKTGYDYWGQGTQVTVSS | high polyreactivity
3 | QVQLVESGGGLVQAGGSLRLSCAASGIIFLYYAMGWYRQAPGKERELVAAISSGGSTYYADSVKGRFTISRDNAKNTVYLQMNSLKPEDTAVYYCAARPRKSRAYTALGDYWGQGTQVTVSS | high polyreactivity
4 | QVQLVESGGGLVQAGGSLRLSCAASGIIFNDYAMGWYRQAPGNERELVATISWSGGSTYADSVKGLFTISRDNAKNTVYLQMNSLKPEDTAVYYCANQPTVYHHYGLGYWGQGTQVTVSS | low polyreactivity
5 | QVQLVESGGGLVQAGGSLRLSCAASGIIFNRYAMGRYRQAPGKERELVASITSSGGSTHYADSVKGRFTISRDNAKNTVYLQMNSLKPEDTAVYYCAKQFPNNYRYYLHYYYWGQGTQVTVSS | low polyreactivity
6 | QVQLVESGGGLVQAGGSLRLSCAASGIIFNTYAMGWYRPAPGKERELVAGIDYSGGGTSYADSVKGRFTISRDNAKNTVYLQMNSLKPEDTAVYYCAADAYSGAYFTYLGEIYDYWGQGTQVTVSS | low polyreactivity
7 | QVQLVESGGGLVQAGGSLRLSCAASGIIFNYNAMGWYRQAPGKERELVASISSSGGNTYYADSVKGRFTISRDNAKNTVYLQMNSLKPEDTAVYYCAARYVGWRLKRWYEYWGQGTQVTVSS | high polyreactivity
8 | QVQLVESGGGLVQAGGSLRLSCAASGIIFPGNAMGWYRQAPGKERELVAAISSGGNTKYADSVKGRFTISRDNAKNTGYLQMNSLKPEDTAVYYCAADGASRALYDYWGQGTQVTVSS | high polyreactivity
9 | QVQLVESGGGLVQAGGSLRLSCAASGIIFPIYAMGWYRQAPGPERELVAAIDINGGRTYYADSVKGRFTISRDNAKNTVYLPMNSLKPEDTAVYYCNAEGGSYARLYGNYEYWGQGTQVTVSS | low polyreactivity
10 | QVQLVESGGGLVQAGGSLRLSCAASGIIFPRYAMGWYIQAPGKERELVAAITKRGGSTYYADSVKGRFTISRDNANNTVYLQMNSLKPEDTAVYYCARVWSRRYGGWYRNYDYWGQGTKVTVSS | high polyreactivity
11 | QVQLVESGGGLVQAGGSLRLSCAASGIIFPRYAMGWYRQAPGKERELVAAITKRGGSTYYADSVKGRFTISRDNAKNTVYLQMNSLKPEDTAVYYCAADDNSGYYYWGQGTQVTVSS | high polyreactivity
12 | QVQLVESGGGLVQAGGSLRLSCAASGIIFPRYTMGSYRQAPGKERELVAAISWRGGRTYYADSVKGRFTISRDNAKNTVYLQMNSLKPEDTAVYYCAAEFVHSYSYAYDYWGQGTQVTVSS | high polyreactivity
13 | QVQLVESGGGLVQAGGSLRLSCAASGIIFPSYAMGWYRQAPGKERELVADISNDDSTNYADSVKGRFTISRDNAKNTVYLQMNSLKPEDTAVYYCNAEEWGFWWRYDYWGQGTQVTVSS | high polyreactivity
14 | QVQLVESGGGLVQAGGSLRLSCAASGIIFPSYVMGWYRPAPGKERELVARISARGGRTYYADSVKGRFTISRDNAKNTVYLQMNSLKPEDTAVYYCAARWGITTWYDYWGQGTQVTVSS | high polyreactivity
15 | QVQLVESGGGLVQAGGSLRLSCAASGIIFPTYAMGWYRQAPGKERELVAAISVSGGTTSYADSVKGRFTISRDNAKNTVYLQMNSLKPEDTAVYYCAARKYSYPVAAHYYWGQGTQVTVSS | high polyreactivity
16 | QVQLVESGGGLVQAGGSLRLSCAASGIIFPYYAMGWYRQATGKERELVAAITRGGITYYADSVKGRFTISRDNAKNTVYLQMNSLKPEDTAVYYCAARLRGSYDYWGQGTQVTVSS | high polyreactivity
17 | QVQLVESGGGLVQAGGSLRLSCAASGIIFPYYTMGWYRQAPGKERELVARITNGGRTYYADSVNGRFTISRDNAKNTVYLQMNSLKPEDTAVYYCNAGRYYIGGYWGQGTQVTVSS | high polyreactivity
18 | QVQLVESGGGLVQAGGSLRLSCAASGIIFQAYAMGWYRQAPGKERELVAAISYSGGSTYYADSVKGRFTISRDNAKNTVYLQMNCLKPEDTAVYYCAATFYGYFDSVFSWGYYYWGQGTQVTVSS | low polyreactivity
19 | QVQLVESGGGLVQAGGSLRLSCAASGIIFQFYAMGWYRQAPGKEREFVAAISARSGRTYYADSVKGRFTISRDNAKNTVYLQMNSLKPEDTAVYYCNTAYAYSGRYDYWGQGTQVTVSS | high polyreactivity
20 | QVQLVESGGGLVQAGGSLRLSCAASGIIFQRNDMGWYRQAPGKERELVANIRDGGITYADSVKGRFTISRDNAKNTVYLQMNSLKPEDTAVYYCARDDTSPGYGDQSSNAAYYYWGQGTQVTVSS | low polyreactivity

Row | Sequence | polyreactivity (PSR sort gate)
21 | QVQLVESGGGLVQAGGSLRLSCAASGIIFQSYTMGWYRQAPGKVRELVAAIDSGGSTYYADSVKGRFTISRDNAKNTVYLQMNSLKPEDTAVYYCAAEPDTYWYTYDYWGQGTQVTVSS | low polyreactivity
22 | QVQLVESGGGLVQAGGSLRLSCAASGIIFRAYAMGWYRPAPGKETEFVADISYSGGRTYYADSVKGRFTISRDNAKNTVYLPLNSLKPEDTAVYYCGARKLYGSPEHGYWGQGTQVTVSS | high polyreactivity
23 | QVQLVESGGGLVQAGGSLRLSCAASGIIFRFYAMGWYRQAPGKERELVAAITSSGGSTYYADSVKGRFTISRDNAKNTVYLQMNSLKPEDTAVYYCATSTGPYRGRFYYWGQGTQVTVSS | high polyreactivity
24 | QVQLVESGGGLVQAGGSLRLSCAASGIIFRGNAMGWYRQAPGKERELVAAISKSGGRTYYADSVKGRFTISRDNAKNTVYLQMNSLKPEDTAVYYCAASYYAVGGYDYWGQGTQVTVSS | high polyreactivity
25 | QVQLVESGGGLVQAGGSLRLSCAASGIIFRGYAMGWDRQAPGQERELVAVIDRSGARTNYADSVTGRFTISRDNAKNTVYLQMNSLKPEDTAVYYCAASGVRAYSGLGYWGQGSQVTVSS | high polyreactivity
26 | QVQLVESGGGLVQAGGSLRLSCAASGIIFRGYAMGWYRLAPGKERELVAAINQDSGNTYYADSVKGRFTISRDNAKKTVYLQMNSLKPEDTAVYYCAASSRLNRWNYYAFDYWGQGTQVTVSS | high polyreactivity
27 | QVQLVESGGGLVQAGGSLRLSCAASGIIFRGYVMGWYRQAPGKERELVAAISTSGGRTSYADSVKGRFTISRDNAKNTVYLQMNSLKPEDTAVYYCAADSGYRYYTKSVGYDYWGQGTQVTVSS | high polyreactivity
28 | QVQLVESGGGLVQAGGSLRLSCAASGIIFRGYVMGWYRQAPGKERELVADISRGGSTYYADSVKGRFTISRDNAKNTVYLQMNSLKPEDTAVYYCATAGPLWFYWGYDYWGQGTQVTVSS | low polyreactivity
29 | QVQLVESGGGLVQAGGSLRLSCAASGIIFRLYGMGWYRPAPGKAREFVATITWRGGRTNYADSVKGRFTISRDNAKNTVYLLMNSRKPEDTADYYCAKDVRYARSNEYDSWGQGTQVTVSS | low polyreactivity
30 | QVQLVESGGGLVQAGGSLRLSCAASGIIFRNYAMGWYRQAPGKERELVATIRYRGGRTYADSVKGRFTISRDNAKNTVYLQMNSLKPEDTAVYYCNARRLSVYGDYDYWGQGTQVTVSS | high polyreactivity
31 | QVQLVESGGGLVQAGGSLRLSCAASGIIFRPYAMGWYRQAPGKERELVAAITGSGVSTYYADSVKGRFTISRDNAKNTVYLQMNCQKPEDTAVYYCAKRYNRGYHRYDYWGQGTQVTVSS | low polyreactivity
32 | QVQLVESGGGLVQAGGSLRLSCAASGIIFRPYAMGWYRQAPGKERELVASITLSGGSTYYADSVKGRFTISRDNAKNTVYLQMNSLKPEDTAVYYCNRYPRLRVVPSRYVKYDYWGQGTQVTVSS | low polyreactivity
33 | QVQLVESGGGLVQAGGSLRLSCAASGIIFRRYAMGWYRQAPGKERELVAAITGRGGSTYYADSVKGRFTISRDNAKNTVYLQMNSLKPEDTAVYYCAADVYTGDYDSWGQGTQVTVSS | high polyreactivity
34 | QVQLVESGGGLVQAGGSLRLSCAASGIIFRSYAMGWYRQAPGKERELVAAITSGGSTNYADSVKGRFTISRDNAKNTVYLQMHSLKPEDTAVYYCAARWPWYGKLRYYYWGQGTQVTVSS | high polyreactivity
35 | QVQLVESGGGLVQAGGSLRLSCAASGIIFRYNALGWYRQAPGKERELVSPISVSGGSTYYADSVKGRFTISRDNAKNTVYLQMNSLQPEDTAVYYCAALLYRYGVHQAEHDYWGQGTQVTVSS | high polyreactivity
36 | QVQLVESGGGLVQAGGSLRLSCAASGIIFRYYAMGWYRQAPGKERELVAAITVNGGRTYYADSVKGRFTISRDNAKNTVYLQMNSLKPEDTAVYYCAAYPHRYRVTPYPSVVSLDNYWGQGTQVTVSS | low polyreactivity
37 | QVQLVESGGGLVQAGGSLRLSCAASGIIFRYYAMGWYRQAPGKEREWVAAISSSGVSTYYADSVKGRFTISRDNAKNNVYLQMNSLKPEDTAVYYCAAVTTWRMDYWGQGTQVTVSS | high polyreactivity
38 | QVQLVESGGGLVQAGGSLRLSCAASGIIFSDYAMGWYRQAPGKERELVAAISSNAGTTSYADSVKGRFTISRDNAKNTVYLQMNSLKPEDTAVYYCNADSSYPPGYDYCGQGTQVTVSS | low polyreactivity
39 | QVQLVESGGGLVQAGGSLRLSCAASGIIFSDYDMGWYRQAPGKERELVAAISWSGGSTYYADSVKGRFTISRDNAKNTVYLQMNSLKPEDTAVYYCAVDSQRQVTSRDDYWGQGTQVTVSS | low polyreactivity
40 | QVQLVESGGGLVQAGGSLRLSCAASGIIFSGNAMGWSRQAPGKERELVAAITLSGGSTYYADSVKGRFTISRDNAKNTVYLQMNSLKPEDTAVYYCNAVYDTKYSLRDIDTEYGSWGQGTQVTVSS | low polyreactivity
